One substance from doi:10.1101/2025.01.15.633204 can be followed below.

The experiment concerns the target barnase (Bacillus amyloliquefaciens) (UniProt P00648). In words: BLI.
Sequence of UniProt P00648 (P00648 48-157): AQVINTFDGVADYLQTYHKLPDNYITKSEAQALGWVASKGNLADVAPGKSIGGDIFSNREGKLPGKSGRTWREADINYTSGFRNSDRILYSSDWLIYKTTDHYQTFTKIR

With “green fluorescent protein-Bs (GFP-Bs) fusion protein”, the dissociation constant (Kd) is less than 100 pM.
